Measurements as given in patent US20060134087A1, “ITI-D1 Kunitz domain mutants as hNE inhibitors” (Dyax Corp., priority 1988, published 2006).
Values joined by “and” are separate entries in the source; they are usually repeats but may differ in a detail not shown here. Identical values can stand only once.

Molecular target: T1, agarose-immobilized hNE beads (Homo sapiens, UniProt P08246)
T1 sequence (P08246 30-267): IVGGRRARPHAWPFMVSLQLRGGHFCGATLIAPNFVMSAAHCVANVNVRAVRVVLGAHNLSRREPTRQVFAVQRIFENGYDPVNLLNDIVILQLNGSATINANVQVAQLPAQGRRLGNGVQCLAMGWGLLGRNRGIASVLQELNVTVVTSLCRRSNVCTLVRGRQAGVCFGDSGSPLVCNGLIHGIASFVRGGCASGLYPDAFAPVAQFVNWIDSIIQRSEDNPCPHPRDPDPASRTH
Test: pH fractionation of display phage on agarose-immobilized hNE beads
Assay type: binding
Parameters: Fraction of Input recovered at pH7.0: scale not given here
Settings: for Recovery Total: total fraction of input; for reduction of display phage binding to hNE-beads / effect of change on binding of display phage to hNE-beads: relative to parental MA-BITI-E7-141; for fraction of input: abbreviated fractionation
Excerpt: For the purpose of simultaneously assessing the affinity of a large number of different BPTI and ITI-D1 muteins, DNA sequences encoding the BPTI or ITI-D1 was incorporated into the genome of the bacteriophage M13. […] Alterations in the KuDom amino acid sequence were introduced. Each pure population of phage displaying a particular KuDom was characterized with regard to its interactions with immobilized hNE or hCG. Based on comparison to the pH elution profiles of phage displaying other KuDoms of known affinities for the particular protease, mutant KuDoms having high affinity for the target proteases were identified. Subsequently, the sequences of these mutant KuDoms were determined (typically by sequencing the corresponding DNA sequence).
To test if phage displaying the ITI-D1::III fusion protein interact strongly with the proteases human neutrophil elastase (hNE), aliquots of display phage were incubated with agarose-immobilized hNE beads (“hNE beads”). The beads were washed and bound phage eluted by pH fractionation as described in U.S. Pat. No. 5,223,409. The pHs used in the step gradient were 7.0, 6.0, 5.5, 5.0, 4.5, 4.0, 3.5, 3.0, 2.5, and 2.0. Following elution and neutralization, the various input, wash, and pH elution fractions were titered. Phage displaying ITI-D1 were compared to phage that display EpiNE-7.
To test if ITI-D1E7-display phage bind hNE beads, pH elution profiles were measured. Aliquots of EpiNE-7, MA-ITI-D1, and MA-ITI-D1E7 display phage were incubated with hNE beads for three hours at room temperature (RT). The beads were washed and phage were eluted as described in U.S. Pat. No. 5,223,409, except that only three pH elutions were performed. […] The pH elution profile of EpiNE-7 display phage is as described. MA-ITI-D1E7 phage show a broad elution maximum around pH 5. The total fraction of MA-ITI-D1E7 phage obtained on pH elution from hNE beads was about 40-fold less than that obtained using EpiNE-7 display phage.
We characterized the binding properties to hNE-beads of MA-BITI and MA-BITI-E7 display phage using the extended pH fractionation procedure described in U.S. Pat. No. 5,223,409.
The binding capacity of hNE-beads for display phage varies among preparations of beads and with age for each individual preparation of beads. Thus, it is difficult to directly compare absolute yields of phage from elutions performed at different times. For example, the fraction of MA-EpiNE7 display phage recovered from hNE-beads varies two-fold among the experiments shown in Tables 14, 16, and 17. However, the shapes of the pH elution profiles are similar. It is possible to correct somewhat for variations in binding capacity of hNE-beads by normalizing display phage yields to the total yield of MA-EpiNE7 phage recovered from the beads in a concurrent elution. When the data shown in Tables 14, 16, and 17 are so normalized, the recoveries of display phage, relative to recovered MA-EpiNE7, are shown in Table 3.
ITI-D1 derivative BITI-E7-1222 is BITI-E7 with the alteration A11T. ITI-D1 derivative BITI-E7-141 is BITI-E7 with the alterations E31Q and Q34V; phage that display the presence of these proteins are MA-BITI-E7-1222 and MA-BITI-E7-141. We determined the binding properties to hNE-beads of MA-BITI-E7-1222 and MA-BITI-E7-141 display phage using the extended pH fractionation protocol described previously. The results are in Tables 18 (for MA-BITI-E7 and MA-BITI-E7-1222) and 19 (for MA-EpiNE7 and MA-BITI-E7-141). The pH elution profiles for the MA-BITI-E7 and MA-BITI-E7-1222 phage are almost identical.
Total pfu applied to the beads are in column two. The fractions of this input pfu recovered in each pH fraction of the abbreviated pH elution protocol (pH 7.0, pH 3.5, and pH 2.0) are in the next three columns. […]

[1] = EE extended pH elution protocol
[2] = EE, sum of pH 3.0, 2.5, 2.0 samples
[3] = EE, sum of pH 6.0 to pH 3.5 samples
[4] = AE abbreviated pH elution protocol
[5] = SUM of all pH elution fractions
[6] = extended protocol, final TBS-TWEEN wash
[7] = extended protocol, pH 3.0 fraction
[8] = extended protocol, pH 4.0 fraction
[9] = extended protocol, pH 4.5 fraction
[10] = extended protocol, pH 5.0 fraction
[11] = extended protocol, pH 5.5 fraction
[12] = extended protocol, pH 7.0 fraction

In the case of “AMINO1: ITI-D1 derivative carrying K1-E2, SEQ ID NO 022 (KEDFCQLGYSAGPCVAMFPRYFYNGTSMACETFQYGGCMGNGNNFVTEKDCLQTCRGA; AMINO1)”, the “Fraction of Input recovered at pH7.0” value [1] is reported as 0.24, the “Fraction of Input recovered at pH2.0” value [2] is reported as 0.35 ×10^−4 and the “Fraction of Input recovered at pH3.5” value [3] is reported as 2.3 ×10^−4. The “Recovery Total” value (EE) was 2.9 ×10^−4 and the “reduction of display phage binding to hNE-beads” value was “at least ten fold”.
For “AMINO2: ITI-D1 derivative carrying K1-S4, SEQ ID NO 023 (KPDSCQLGYSAGPCVAMFPRYFYNGTSMACETFQYGGCMGNGNNFVTEKDCLQTCRGA; AMINO2)”, the “Fraction of Input recovered at pH2.0” value [4] was 0.45 ×10^−4, the “Fraction of Input recovered at pH3.5” value [4] was 2.1 ×10^−4 and the “Fraction of Input recovered at pH7.0” value [4] was 0.57. For the same substance, the “Recovery Total” value (AE) was 3.1 ×10^−4 and the “reduction of display phage binding to hNE-beads” value was “at least ten fold”.
“BITI-E7-141: BITI-E7 with the alterations E31Q and Q34V; SEQ ID NO 017 (RPDFCQLGYSAGPCVAMFPRYFYNGTSMACQTFVYGGCMGNGNNFVTEKDCLQTCRGA; BITI-E7-141)” was tested, and the “fold greater affinity for hNE than BITI-E7” value was “approximately 100 fold”, the “Fraction of Input recovered at pH2.0” value [4] was 5.4 ×10^−4 and the “Fraction of Input recovered at pH3.5” value [4] was 18.0 ×10^−4. The “Fraction of Input recovered at pH7.0” value [4] was 2.2, the “Recovery Total” value (AE) was 26.0 ×10^−4 and the “Fraction of Input recovered at pH7.0” value [1] was 2.1. The “Fraction of Input recovered at pH2.0” value [2] was 3.2 ×10^−4, the “Fraction of Input recovered at pH3.5” value [3] was 21. ×10^−4 and the “Recovery Total” value (EE) was 26.0 ×10^−4. For the same substance, the “Fraction of Input bound” value (range of the affinity class) was >0.1% and the “pH Elution Maximum” value (range of the affinity class) was “≦4.0 pH”.
“BITI-E7-1222: BITI-E7 with the alteration A11T; SEQ ID NO 143 (RPDFCQLGYSTGPCVAMFPRYFYNGTSMACETFQYGGCMGNGNNFVTEKDCLQTCRGA; BITI-E7-1222)” was tested, and the “Fraction of Input recovered at pH7.0” value [1] was 0.72, the “Fraction of Input recovered at pH2.0” value [2] was 0.64 ×10^−4 and the “Fraction of Input recovered at pH3.5” value [3] was 4.0 ×10^−4. The “Recovery Total” value (EE) was 5.4 ×10^−4.
In the case of “BITI-E7: ITI-D1E7 with K1R, E2P and S4F; SEQ ID NO 142 (RPDFCQLGYSAGPCVAMFPRYFYNGTSMACETFQYGGCMGNGNNFVTEKDCLQTCRGA; BITI-E7)”, the “fold greater affinity for hNE than ITI-D1E7” value is reported as “ten-fold”.
“EpiNE7: BPTI-derived Kunitz domain, SEQ ID NO 009; in Tables 14-16 the phage displaying it” was tested, and the “fold greater affinity for hNE than ITI-D1E7” value was “roughly 1000 fold”, the “Fraction of Input recovered at pH7.0” value [1] was 0.44 and the “Fraction of Input recovered at pH2.0” value [2] was 2.2 ×10^−4. The “Fraction of Input recovered at pH3.5” value [3] was 6.4 ×10^−4, the “Recovery Total” value (EE) was 9.0 ×10^−4 and the pfu [5] was 6.4 · 10^6 pfu and 7.6 · 10^6 pfu. For the same substance, the “pfu/INPUT (fraction of input)” value [5] was 3 · 10^−3 and 4.1 · 10^−3, the fraction of input [5] was 4.3 · 10^−3 and the fraction of input (Wash) was 6 · 10^−5. For the same substance, the fraction of input (pH 2.0) was 1 · 10^−3, the fraction of input (pH 3.5) was 3 · 10^−3 and the fraction of input (pH 7.0) was 3 · 10^−4. The “total fraction of input phage eluted from hNE beads” value (all pH elution fractions) was “About 0.3%”, the pH Elution Maximum (display phage on hNE beads) was ~4.0 pH and the pfu [6] was 3.8 · 10^5 pfu. The “pfu/INPUT (fraction of input)” value [6] was 1.2 · 10^−4, the pfu (extended protocol, pH 2.0 fraction) was 3.0 · 10^5 pfu and 2.9 · 10^5 pfu and the pfu (extended protocol, pH 2.5 fraction) was 1.6 · 10^5 pfu and 2.8 · 10^5 pfu. For the same substance, the pfu [7] was 6.6 · 10^5 pfu and 3.8 · 10^5 pfu, the “pfu/INPUT (fraction of input)” value [7] was 2.0 · 10^−4 and 2.1 · 10^−4 and the pfu [8] was 1.6 · 10^6 pfu and 1.7 · 10^6 pfu. The “pfu/INPUT (fraction of input)” value [8] was 4.8 · 10^−4 and 9.4 · 10^−4, the pfu [9] was 1.2 · 10^6 pfu and 1.1 · 10^6 pfu and the “pfu/INPUT (fraction of input)” value [9] was 3.5 · 10^−4 and 6.1 · 10^−4. For the same substance, the pfu [10] was 9.5 · 10^5 pfu and 8.4 · 10^5 pfu, the “pfu/INPUT (fraction of input)” value [10] was 2.9 · 10^−4 and 4.7 · 10^−4 and the pfu [11] was 9.4 · 10^5 pfu and 7.8 · 10^5 pfu. For the same substance, the “pfu/INPUT (fraction of input)” value [11] was 2.8 · 10^−4 and 4.3 · 10^−4, the “pfu/INPUT (fraction of input)” value (extended protocol, pH 6.0 fraction) was 4.1 · 10^−4 and 3.6 · 10^−4 and the pfu [12] was 6.2 · 10^5 pfu and 5.2 · 10^5 pfu. For the same substance, the “pfu/INPUT (fraction of input)” value [12] was 1.8 · 10^−4 and 2.9 · 10^−4.
With “ITI-D1E7: ITI-D1 with EpiNE-7 sequence at positions 15-20, SEQ ID NO 021 (KEDSCQLGYSAGPCVAMFPRYFYNGTSMACETFQYGGCMGNGNNFVTEKDCLQTCRGA; ITI-D1E7)” the “estimated affinity of free protein for hNE” value (estimated from pH elution profile of display phage) was “in the nM range”.
In the case of “MUT1619: BITI-E7-141 with ITI-D1 residues restored at 16 and 19; SEQ ID NO 020 (RPDFCQLGYSAGPCVGMFSRYFYNGTSMACQTFVYGGCMGNGNNFVTEKDCLQTCRGA; MUT1619)”, the “Fraction of Input recovered at pH7.0” value [1] is reported as 0.82, the “Fraction of Input recovered at pH2.0” value [2] is reported as 0.84 ×10^−4 and the “Fraction of Input recovered at pH3.5” value [3] is reported as 9.9 ×10^−4. For the same substance, the “Recovery Total” value (EE) was 12.0 ×10^−4, the “Fraction of Input bound” value (range of the affinity class) was >0.1% and the “pH Elution Maximum” value (range of the affinity class) was “≦4.0 pH”.
In the case of “MUTP1: ITI-D1 derivative asserting I15, G16, S19; SEQ ID NO 024 (RPDFCQLGYSAGPCIGMFSRYFYNGTSMACETFQYGGCMGNGNNFVTEKDCLQTCRGA; MUTP1)”, the “Fraction of Input recovered at pH2.0” value [4] is reported as 1.2 ×10^−4, the “Fraction of Input recovered at pH3.5” value [4] is reported as 9.2 ×10^−4 and the “Fraction of Input recovered at pH7.0” value [4] is reported as 1.8. The “Recovery Total” value (AE) was 12.0 ×10^−4.
With “MUTQE: BITI-E7-141 with Q31E; SEQ ID NO 019 (RPDFCQLGYSAGPCVAMFPRYFYNGTSMACETFVYGGCMGNGNNFVTEKDCLQTCRGA; MUTQE)” the “Fraction of Input recovered at pH2.0” value [4] was 5.3 ×10^−4, the “Fraction of Input recovered at pH3.5” value [4] was 16. ×10^−4 and the “Fraction of Input recovered at pH7.0” value [4] was 1.2. The “Recovery Total” value (AE) was 22.0 ×10^−4, the “Fraction of Input bound” value (range of the affinity class) was >0.1% and the “pH Elution Maximum” value (range of the affinity class) was “≦4.0 pH”. For the same substance, the “effect of change on binding of display phage to hNE-beads” value was “little effect”.
For “MUTT26A: BITI-E7-141 with T26A; SEQ ID NO 018 (RPDFCQLGYSAGPCVAMFPRYFYNGASMACQTFVYGGCMGNGNNFVTEKDCLQTCRGA; MUTT26A)”, the “Fraction of Input recovered at pH7.0” value [1] was 2.5, the “Fraction of Input recovered at pH2.0” value [2] was 3.3 ×10^−4 and the “Fraction of Input recovered at pH3.5” value [3] was 19.0 ×10^−4. For the same substance, the “Recovery Total” value (EE) was 25.0 ×10^−4, the “Fraction of Input bound” value (range of the affinity class) was >0.1% and the “pH Elution Maximum” value (range of the affinity class) was “≦4.0 pH”. The “effect of change on binding of display phage to hNE-beads” value was “little effect”.
